The values below come from patent publication US20240254220A1 (CENTRICSBIO, published 2024).

For assay [1], the target named is T1, CD300c antigen (11832-H08H, Sino Biological) (human, UniProt Q08708 21-183).
T1 construct: Bought antigen; also called CD300c protein; CD300 antigen-like family member C
T1 sequence (looked up): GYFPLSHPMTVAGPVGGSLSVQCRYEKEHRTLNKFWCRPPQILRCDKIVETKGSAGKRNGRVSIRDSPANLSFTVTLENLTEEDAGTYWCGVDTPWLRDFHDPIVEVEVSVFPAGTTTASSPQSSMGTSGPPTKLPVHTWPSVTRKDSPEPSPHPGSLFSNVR
The experiment in a line: binding ELISA on coated CD300c antigen (800 ng/mL), anti-Fc secondary antibody, 450 nm (Experimental Example 2.3). The protocol: CD300c antigen (250 ug/mL) was diluted to a concentration of 800 ng/mL in coating buffer (0.1 M sodium carbon ate, pH 9.0), placed into a 96-well microplate at 100 μL per well, and incubated at 4° C. overnight. The next day, the microplate was washed three times with 200 μL of PBST. Thereafter, 200 μL of a blocking buffer (5% skim milk) was added thereto, followed by blocking at room temperature for 1 hour. The anti-CD300c monoclonal antibody CL7 was diluted to 200 μg/mL in PBS, and the concentration thereof was checked by measurement using Nanodrop (product name: NanoDrop One/One, manufactured by Thermo Fisher Scientific). Subsequently, CL7 was diluted in quadruplicate with PBS starting from 10 μg/mL, and added at 100 μL each, followed by incubation at room temperature for 1 hour. After the incubation, the microplate was washed three times with […] of PBST. A secondary antibody (conjugated anti-Fc IgG) was diluted 1:10,000 in blocking buffer, and added at 100 μL, followed by incubation at room temperature for 1 hour, and then washed three times with 200 μL of PBST. Subsequently, TMB and hydrogen peroxide were mixed 1:1, and added at 100 μL per well, followed by incubation at room temperature for 7 to 9 minutes.

Assay [2] addresses T1, CD300c antigen (11832-H08H, Sino …). Put plainly: SPR, CD300c immobilised on the chip (399.2 RU), CL7 as analyte at 0-6.25 µg/mL; CD300c on the chip, CL7 as analyte. The protocol:
In order to identify the binding affinity between the antigen CD300c and the anti-CD300c monoclonal antibody CL7, a surface plasmon resonance experiment was performed.
To immobilize CD300c on a […], 5 μg/mL of CD300c was diluted in 10 mM acetate buffer (pH 5.5). Then, the flow rates were all set equally to […], and the target RU was respectively set to 300 RU. […] by a mixture of 0.2 M EDC and 0.05 M NHS, and blocked with 1 M ethanolamine to perform the immobilization so that the final RU of CD300c became 399.2 RU. Then, CL7 was diluted in PBSP to concentrations of 0, 0.195, 0.39, 0.78, 1.56, 3.125, and 6.25 μg/mL, separately. […] Subsequently, 50 mM NaOH was allowed to flow at a rate of 30 μL/min for 30 seconds to regenerate the surface.

For assay [3], the target named is T2, B7-H4 (Sino Biological) (UniProt Q7Z7D3 25-258, limits assumed).
T2 sequence (looked up): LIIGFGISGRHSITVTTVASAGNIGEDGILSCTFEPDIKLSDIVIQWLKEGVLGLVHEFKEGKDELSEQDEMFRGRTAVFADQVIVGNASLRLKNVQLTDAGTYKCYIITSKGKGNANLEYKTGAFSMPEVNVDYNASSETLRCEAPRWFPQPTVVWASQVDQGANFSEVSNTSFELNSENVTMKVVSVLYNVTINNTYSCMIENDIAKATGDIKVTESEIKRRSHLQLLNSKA
Put plainly: binding ELISA on coated antigen (8 µg/mL), HRP anti-Fc detection, 450 nm (Experimental Example 2.5). As to the method:
(§1) In order to identify that the anti-CD300c monoclonal antibody CL7 specifically binds only to CD300c without binding to other B7 family proteins, binding ELISA was performed. More specifically, each of CD300c antigen, CD300a antigen, or seven B7 family protein antigens (PD-L1 [B7-H1] (Sino Biological), ICOS Ligand[B7-H2] (Sino Biological), CD276[B7-H3] (Sino Biological), B7-H4 (Sino Biological), CD80[B7-1] (Sino Biological), CD86[B7-2] (Sino Biological), CD273[PD-L2] (Sino Biological)) in a coating buffer (0.1 M sodium carbonate, pH 9.0) was coated on an ELISA plate at a concentration of 8 μg/mL per well, and then bound to the plate by incubation at 2° C. to 8° C. overnight. The unbound antigen was removed by washing with PBST three times, and then […] of blocking buffer (5% skim milk in PBST) was added to each well. Subsequently, blocking was performed at room temperature for 1 hour, followed by washing again with PBST. Thereafter, CL7 was diluted in quadruplicate with PBS, incubated with the antigen at room temperature for 1 hour for antigen binding 1 hour later, and washed three times with PBST. Then, a secondary antibody (HRP-conjugated anti-Fc IgG) diluted to 4 μg/mL in blocking buffer was added thereto, followed by incubation at room temperature for 1 hour. Subsequently, the unbound antibody for detection was removed using PBST, and then a TMB solution was added thereto, followed by incubation for 10 minutes for development. Then, 2 N sulfuric acid solution was added to terminate the development reaction, and the absorbance was measured at 450 nm to identify the antibody specifically binding to the CD300c antigen.

The target of assay [4] is T3, CD300a antigen (12449-H08H, Sino Biological) (UniProt Q9UGN4 18-178).
T3 sequence (looked up): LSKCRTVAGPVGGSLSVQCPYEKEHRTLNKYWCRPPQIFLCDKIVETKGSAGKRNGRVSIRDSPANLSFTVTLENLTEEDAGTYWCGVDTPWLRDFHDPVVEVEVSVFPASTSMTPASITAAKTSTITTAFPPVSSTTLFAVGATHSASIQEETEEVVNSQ
Described as above. As to the method:
as §1

Assay [5] deals with T4, CD80[B7-1] (Sino Biological) (UniProt P33681 35-242).
T4 sequence (looked up): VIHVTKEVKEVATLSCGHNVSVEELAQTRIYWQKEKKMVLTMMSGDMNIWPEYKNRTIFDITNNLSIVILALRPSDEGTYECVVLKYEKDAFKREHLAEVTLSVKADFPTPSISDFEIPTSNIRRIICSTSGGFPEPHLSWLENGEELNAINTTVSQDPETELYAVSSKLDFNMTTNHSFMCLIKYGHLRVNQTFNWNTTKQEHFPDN
Described as above. The protocol: as §1

B1: CL7 (antibody, V domains shown)
VH: EVQLLESGGGLVQPGGSLRLSCAASGFTFSRYAMSWVRQAPGKGLEWVSAISGSGGSTYYADSVKGRFTISRDNSKNTLYLQMNSLRAEDTAVYYCARSSQGIFDIWGQGTLVTVSS
VL: QSVLTQPPSASGTPGQRVTISCSGNNIGTRRVHWYQQLPDTAPKLLIYSKNNRPSGVPDRFSGSKSGTSASLAISGLRSEDEADYYCAAWDDSLSGPVFGGGTKLTVL
notes: detected with anti-human IgG (H+L) and anti-Fc IgG; also called anti-CD300c monoclonal antibody CL7; anti-CD300c monoclonal antibody (CL7)
For B1, the “EC50 (read off the curve)” value in assay [1] was approximately 0.06 µg/mL. Besides, binding in assay [2] was put at a Kd of 0.52 nM. Also, the binding result in assay [3], in assay [4] and in assay [5] was “no binding (tested: log10 about 0.4 ug/ml (about 2.5 ug/ml))” throughout.
